Measurements: article PMC8419023 (Structure (London, England : 1993), 2021)
Like-named read-outs stand apart in the source and are kept apart here. Each block holds one binder with its values, some of them ahead of it. No end group written: not given here.

Columns and labels:
[1] = target: CDK2-cyclin A^1−432 (human, UniProt P24941 1-298; P20248 1-432); experiment: pull-down
[2] = target: T1, CDK2-cyclin A^173−432 (human, UniProt P24941 1-298; P20248 173-432); experiment: fluorescence polarisation
[3] = target: T1, CDK2-cyclin A^173−432; experiment: fluorescence polarisation; remark: listed apart in the source
[4] = target: T1, CDK2-cyclin A^173−432; experiment: ITC
[5] = target: T1, CDK2-cyclin A^173−432; experiment: fluorescence polarisation; remark: listed apart in the source

B3: GST-Skp2^1−74 (domain or fragment)
chain: MHRKHLQEIPDLSSNVATSFTWGWDSSKTSELLSGMGVSALEKEEPDSENIPQELLSNLGHPESPPRKRLKSKG
- binding result [1]: binds

B4: GST-Skp2^1−53 (domain or fragment)
chain: MHRKHLQEIPDLSSNVATSFTWGWDSSKTSELLSGMGVSALEKEEPDSENIPQ
- binding result [1]: binds

Binder: MHRKHLQEIPDLSSNVATSFTWGWDSSKTSELLSGMGVSALEK (domain or fragment) [GST-Skp2^1−43]
- binding result [1]: binds

B5: Skp2^17−85 (domain or fragment)
chain: ATSFTWGWDSSKTSELLSGMGVSALEKEEPDSENIPQELLSNLGHPESPPRKRLKSKGSDKDFVIVRRP
- IC50 [3]: 13.4 µM
- Kd [4]: 0.496 µM
- IC50 [5]: 5.1 µM

B6: GST-Skp2^1−85 (domain or fragment)
chain: MHRKHLQEIPDLSSNVATSFTWGWDSSKTSELLSGMGVSALEKEEPDSENIPQELLSNLGHPESPPRKRLKSKGSDKDFVIVRRP
- binding result [1]: binds

Next, values leading:

- binding result [1]: binds
B1: GST-Skp2^1−64 (domain or fragment)
chain: MHRKHLQEIPDLSSNVATSFTWGWDSSKTSELLSGMGVSALEKEEPDSENIPQELLSNLGHPES

- binding result [1]: binds
B2: GST-Skp2^1−94 (domain or fragment)
chain: MHRKHLQEIPDLSSNVATSFTWGWDSSKTSELLSGMGVSALEKEEPDSENIPQELLSNLGHPESPPRKRLKSKGSDKDFVIVRRPKLNRENFPG

- Kd [2]: 2.1 µM
Binder: SACRNLFGPV-NH2 (not fully specified (N-terminus)) [FITC-p27^27−36 peptide]
